Legend:
SpHex = target: T1, SpHex (Streptomyces plicatus, UniProt O85361); assay: transglycosylation time course, TLC; assay type: biochemical; conditions: donor 100 mM; acceptor 200 mM lactose; 50 mM sodium phosphate pH 8.0, 0.5% BSA, 37 °C
T1 construct: gene hex
T1 sequence (O85361 1-506): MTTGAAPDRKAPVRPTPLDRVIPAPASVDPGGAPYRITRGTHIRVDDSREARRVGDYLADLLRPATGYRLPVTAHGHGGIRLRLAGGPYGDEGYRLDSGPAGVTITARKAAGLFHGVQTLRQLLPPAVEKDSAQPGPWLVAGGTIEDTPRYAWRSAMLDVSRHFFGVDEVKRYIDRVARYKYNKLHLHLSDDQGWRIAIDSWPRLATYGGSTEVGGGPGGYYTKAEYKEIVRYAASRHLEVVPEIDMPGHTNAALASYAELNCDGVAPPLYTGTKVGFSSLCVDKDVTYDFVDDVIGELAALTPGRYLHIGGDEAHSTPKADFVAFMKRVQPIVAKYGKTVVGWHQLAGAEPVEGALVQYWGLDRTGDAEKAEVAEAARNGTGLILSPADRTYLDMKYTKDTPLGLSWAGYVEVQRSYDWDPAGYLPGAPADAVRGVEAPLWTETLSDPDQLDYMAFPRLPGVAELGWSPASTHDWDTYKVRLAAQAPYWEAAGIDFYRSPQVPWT

purified protein [1] = substrate: CC(=O)N[C@H]1[C@H](Oc2ccc([N+](=O)[O-])cc2)O[C@H](CO)[C@H](O)[C@@H]1O; assay: purified protein; assay type: biochemical, Paraglaciecola hydrolytica; conditions: two-fold diluted McIlvaine buffer pH 6.0, 0.05% BSA, 37 °C
purified protein [2] = substrate: CC(=O)N[C@H]1[C@H](Oc2ccc([N+](=O)[O-])cc2)O[C@H](CO)[C@@H](O)[C@@H]1O; assay: purified protein; assay type: biochemical, Paraglaciecola hydrolytica; conditions: two-fold diluted McIlvaine buffer pH 6.0, 0.05% BSA, 37 °C

For `CC1=N[C@H]2[C@@H](O1)O[C@H](CO)[C@@H](O)[C@@H]2O` [NAG-oxazoline, 2-methyl-(1,2-dideoxy-α-D-glucopyrano)-oxazoline], the “transglycosylation time course, TLC” value (SpHex) was “We here also demonstrated transglycosylation by the commercial GH20 N-acetylglucosaminidase from S. plicatus (SpHex)”.

B1: PhNah20A (Paraglaciecola hydrolytica) (protein)
chain: MYKIIIAGLGLLWSITSHGMQPLNLMPYPSEVQQQAGHFTLPSQLKVFTQHVSEARCELIKEQLEQLQQVEVLWVTAKDQANLLVEVEGVTQVMEVGGKSGELIPTLHDNEQYHLSVSPRLITLKAQTERGMLHGVQTLLQLVNRTQRSIPAVDIDDKPRFAWRGLLIDSVRHFMPVDTIKRQLRGMASAKLNVLHWHLTDDQGWRIASKAYPKLQLLASDGLFYTQQQIREVVQYAALLGIRVVPEFDVPGHASAIAVAYPELITQPGPYTMQRHWGVFEPLLDPSNPQVYQFIETIISELAELFPDVYVHIGGDEIEPTQWQQSQAVQHYMQQHQLADEHQLHAYFNQQVQQILSKYGKQMMGWDEVFATDLPKDIVVQSWRGLDSLQHIASSDYQVLLSTGYYVDQPQEAAYHYRNDPFTSFKQPSFKTQDIKHWQHWQFTMPRLKGSAVSGEFVLLSSEAGKQVLLRFNNQQARLINELEPRANLQRFTVDSWMGPSQFELDLSKDVIQQGRILIGNTPYSVSGNRLAQSTGSKALPAMLQDFVAASKVPTDLPKLHKNILGGEAAIWSEIVRADNLDLRLWPRLYAIAERLWSPATLTDEDAMYRRLTVMQTYASEVIGLEFTQQQRAGFKQLTSQDADIEPLIILAEAVEQAQYYTRHHSKFQHDNYHQLVELNQYVDYLSAQSLGLVELKRHIELFQQGDQQAKKFIEQLLQKWQKNLPKLKLLIANYPKLHSLAPLVTTLSQVVDIGQKLVAQCAKGEPLKPEHQRDVQQQLWQAAQLQQEMVVSSALAIEALAFKCRA
Work on B1 yielded a Km (purified protein [1]) of 560 ± 110 µM, a kcat (purified protein [1]) of 193 s⁻¹ and a kcat/Km (purified protein [1]) of 344000 M⁻¹ s⁻¹. The Km (purified protein [2]) was 430 ± 70 µM, the kcat (purified protein [2]) was 147 s⁻¹ and the kcat/Km (purified protein [2]) was 341000 M⁻¹ s⁻¹.

Reference: paper PMC7014002, “Identification and Characterization of a β-N-Acetylhexosaminidase with a Biosynthetic Activity from the Marine Bacterium Paraglaciecola hydrolytica S66^T” (International Journal of Molecular Sciences, 2020)
